This is an account of results in paper PMC5131902, “Pheromone Recognition and Selectivity by ComR Proteins among Streptococcus Species” (PLoS Pathogens, 2016).

Read-outs that look alike come from different tables or passages of the source. Ends that are not written are not given here.

Experiment [1] concerns S. agalactiae 2603 v/r ComR. In words: S. mutans ES1 test-bed PcomS::luxAB luciferase reporter assay. The class given is cell-based. Particulars: synthetic peptides titrated to ES1 reporter strain carrying ComR S. agalactiae 2603. The source says: (§1) The entire known SigX regulon, as well as the proximal transcriptional regulator of sigX, ComR, is conserved throughout the Mutans, Bovis, and Pyogenic groups (Fig 1, top). Additionally, within these groups, the mature form of the peptide pheromone ComS contains a conserved double-tryptophan motif (‘WW’) (Fig 1, bottom). This led us to ask whether the putative ComRs encoded by members of these groups could respond to cognate and heterologous XIPs to activate comS and sigX transcription. To test this possibility, we developed a strain that would allow for control of the ComR and XIP variants present within the system. […] Additionally, when a multi-copy plasmid carrying wild-type comR was provided to a ΔcomR strain, the ability to naturally transform exogenous genomic DNA was rescued. With these observations in mind, we created an S. mutans UA159 ‘test bed’ strain, ES1, in which the endogenous comRS locus was replaced with a spectinomycin-resistance cassette (Fig 2A). Because this strain contains neither comS nor comR, it is unable to produce or respond to XIP pheromones. A plasmid was used as a vehicle to provide different comR variants, under control of the native promoter, with adjoining comR-comS intergenic regions containing ComR binding sites and the comS promoter. The plasmid also contains the bacterial luciferase genes, luxAB, under transcriptional control of the cloned comS promoter. Clones harboring each comR-variant plasmid were constructed, grown, and treated with titrations of synthetic XIP peptides. Since productive interaction between ComR and XIP results in transcriptional activation of the comS promoter, we could test the functionality of ComR–XIP interactions by assessing the specific bioluminescent activity of each culture. To ensure that the test bed recapitulated observed results seen in wild-type S. mutans UA159, we assessed the UA159 ComR with serial dilutions of the cognate XIP-C7 (the C-terminal seven amino acids of ComS) and measured bioluminescence levels (Fig 2B).
(§2) Predicted XIP peptide sequences were determined by identifying open reading frames downstream from the putative ComR gene by using NCBI BLAST to identify UA159 ComR homologues. One to three different lengths of peptide from each species were ordered from NeoScientific (Woburn, MA). Peptide crude extracts (purity 45–75%) were dissolved in DMSO (Fisher Scientific, Hampton, NH) at a concentration of 1 mM based upon the specific purity and stored at -20° C.
(§3) Starter cultures, from cultures stored in 20% glycerol at -80° C, of each ComR reporter strain were diluted to an OD600 of 0.05 in CDM + erm and incubated at 37° C until an OD^600 of ~0.1. 190 uL aliquots of reporter strain cell culture were added to wells within a 96-well (Greiner Bio-One; Monroe, NC) lidded, clear, flat-bottom plate, each containing 10 μL of DMSO or a 5x-serial dilution of the peptide of interest in DMSO (final concentration of 5% DMSO/well). Concentrations tested for each peptide were 1.3 nM, 6.4 nM, 38.6 nM, 231.5 nM, 1388.9 nM, […], and 50 μM. […] Prepared plates were lidded and sealed with Parafilm (Bemis, Oshkosh, WI) before incubation at 37° C, with continuous shaking, in a Synergy 2 plate reader (Biotek). OD600 and luminescence readings were measured every 15 min. over a 4-hr period. The maximum RLU measurement per well, between 60–240 minutes was recorded using Gen5 data analysis software. […]
A general note: In a reporter assay the amount or activity of a reporter protein is the signal.

The next experiment concerns the target S. mutans UA159 ComR (Streptococcus mutans serotype c, UniProt Q8DWI6). The description is as above. The class given is cell-based.
Text: as §1, §2, §3

For another experiment, the system named is S. suis S10 (serotype 2). Particulars: cited from earlier work. The text has this: One observed difference from published ComR/XIP behavior was for the two S. pyogenes strains used in our study, MGAS5005 (serotype M1) and MGAS315 (serotype M3).
Experiment [2] concerns the target ComR S. bovis 83 (Streptococcus bovis Sbo 83).
For experiment [3], the target named is ComR S. bovis SboB (Streptococcus bovis SboB).
The target in experiment [4] is ComR S. dysgalactiae subsp. equisimilis ATCC35666 (Streptococcus dysgalactiae subsp. equisimilis ATCC35666).
The target of experiment [5] is ComR S. pyogenes MGAS5005 (Streptococcus pyogenes MGAS5005).
The target of experiment [6] is ComR S. suis N220A (Streptococcus suis 05ZYH33). In words: ITC; 300 μM XIP injected into 20 μM ComR; VP-ITC, 25°C; 20 mM Tris pH 7.5, 100 mM NaCl, 1 mM β-ME; one-site model.
For experiment [7], the target named is ComR S. suis 05ZYH33 (residues 1–304), wild-type (Streptococcus suis 05ZYH33). The experiment is described as above.
Experiment [8] shares this target.
Experiment [9] addresses ComR S. mutans UA159 (Streptococcus mutans UA159).
Experiment [10] shares this target. The source holds these as a separate data set.

Turning to “ETEWWNVG [EBS3, designed XIP of eight residues for ComR S. agalactiae 2603, ETEWWNVG]”, the “reporter induction of ComR S. agalactiae 2603 (maximum relative luciferase activity), in words” value in experiment [1] is “did not elicit strong reporter activity”.

Consider GLDWWSL [UA159 C7], for which, at S. mutans UA159 ComR, the EC50 was determined as 0.00017 µM.

In the case of GNWGTWVEE [XIP-C9], the “transformability upon addition of XIP length variant” value in the experiment on S. suis S10 (serotype 2) is listed as “highest transformability”.

On to “LDWWSLG [EBS1, designed XIP agonist of ComR S. agalactiae 2603, LDWWSLG]”, for which the “reporter induction of ComR S. agalactiae 2603 (maximum relative luciferase activity), in words” value in experiment [1] is “robust reporter induction”.

With S. bovis 83 XIP-C7 (peptide), the EC50 of P comS::luxAB luciferase activity in the S. mutans ES1 test bed in [2] was under 0.001 µM.

The molecule S. bovis SboB XIP-C7 (peptide) had an EC50 of P comS::luxAB luciferase activity in the S. mutans ES1 test bed in [3] of under 0.001 µM.

Turning to “S. dysgalactiae subsp. equisimilis ATCC35666 XIP-C7 (peptide)”, in [4], the EC50 of P comS::luxAB luciferase activity in the S. mutans ES1 test bed was found to be 15 µM and the increase in reporter activity at 50 μM XIP was found to be 10 fold.

In experiment [5], S. pyogenes MGAS315 XIP-C8 (peptide) displayed a P comS::luxAB transcription at 50 μM XIP, relative to the maximum with the cognate XIP of 25%.

In experiment [5], S. pyogenes MGAS5005 XIP-C8 (peptide) came in with an EC50 of P comS::luxAB transcription in the S. mutans ES1 test bed of 0.25 µM and an increase of P comS::luxAB transcription at 50 μM XIP of 25 fold.

Turning to S. suis 05ZYH33 XIP-C7 (peptide), in experiment [6], the Kd came out at 13.7 µM, the dH is -30.5 kJ/mol and the stoichiometry N was determined as 1.09. In experiment [7], this molecule displayed a Kd of 0.862 µM, a dH of -56.7 kJ/mol and a stoichiometry N of 0.96. In addition, in experiment [8], the EC50 of P comS::luxAB luciferase activity in the S. mutans ES1 test bed stood at 0.093 µM.

With “TGWWMLG [EBS2, designed XIP agonist of ComR S. agalactiae 2603, TGWWMLG]”, the “reporter induction of ComR S. agalactiae 2603 (maximum relative luciferase activity), in words” value in experiment [1] was “robust reporter induction”.

Regarding “TMGWWGL [NEM316 XIP, putative Type-II XIP of S. agalactiae strain NEM316, TMGWWGL]”, the “reporter induction of ComR S. agalactiae 2603 (maximum relative luciferase activity), in words” value in experiment [1] is given as “unable to activate”.

In [9], GLDWWSL [S. mutans UA159 XIP-C7] showed an EC50 of P comS::luxAB luciferase activity in the S. mutans ES1 test bed of 0.088 µM. Moreover, in experiment [10], the EC50 of P comS::luxAB luciferase activity in the S. mutans ES1 test bed came out at 0.0002 µM and the maximal induction of luciferase activity in the test bed, at 2 nM XIP came to 140 fold. In experiment [6], the Kd turned out to be 6.06 µM, the dH is -17.8 kJ/mol and the stoichiometry N came to 0.95. In [7], this molecule returned a Kd of 5.88 µM, a dH of -25.2 kJ/mol and a stoichiometry N of 1.03.

The term EC50 denotes the concentration needed to bring the measured effect to its halfway point. For orientation: Kd means the constant that tells how readily two partners part at equilibrium. As usually defined, the stoichiometry N is a count of units in the complex or per binding partner.
